Biological target: the molecule itself
Assay: crystal structure

Protein | stoichiometry N
FolM alternative dihydrofolate reductase 1 from Brucella suis (enzyme, also called BsFolM; His-BsFolM) MLNDPEARMVANCPVLVTGGARRIGKAIVEDLASHGFPVAIHCNRSLDEGEAIANRINDSGGNACVVQADLEGDVRGLVKQASDRIGPIRLLVNNASLFQEDKVGALDMALWDRHFAVHLKTPVILAEDMRKALPEDQDGLVVNIIDQRVWKLNPQFFSYTLSKSALWNATRTLAQALAPRIRVNAIAPGPTLPSERQRPEDFERQVSKLPLQRAPELPEFGRTVRYFWENRSITGQMIALDGGQHLAWETPDIAGITE | 4
FolM alternative dihydrofolate reductase 1 from Brucella canis (enzyme, also called BcFolM; His-BcFolM) MVLNDPEARMVANCPVLVTGGARRIGKAIVEDLASHGFPVAIHCNRSLDEGEAIANRINDSGGNACVVQADLEGDVRGLVKQASDRIGPIRLLVNNASLFQEDKVGALDMALWDRHFAVHLKTPVILAEDMRKALPEDQDGLVVNIIDQRVWKLNPQFFSYTLSKTALWNATRTLAQALAPRIRVNAIAPGPTLPSERQRPEDFERQVSKLPLQRAPELPEFGRTVRYFWENRSITGQMIALDGGQHLAWETPDIAELPNK | 4

From PMC8725004, “Crystal structures of FolM alternative dihydrofolate reductase 1 from Brucella suis and Brucella canis” (Acta Crystallographica. Section F, Structural Biology …, 2022)
